Results reported in article PMC3229523, “Identification of Lactoferricin B Intracellular Targets Using an Escherichia coli Proteome Chip” (PLoS ONE, 2011).
Ends that are not written are not given here.

Legend:
Test in all cases: fluorescence polarisation; 100 nM DyLight 549-labeled LfcinB as tracer; two-fold serial dilution of protein from 0.4 µM to 0.025 µM in PBS, 0.005% BSA, 0.01% Triton X-100; room temperature, 1 h; compared with BSA
Conditions in all cases: both partners purified
MetL = target: T1, MetL (E. coli K-12, UniProt P00562 1-810)
T1 construct: MetL, E. coli K-12
T1 sequence (looked up): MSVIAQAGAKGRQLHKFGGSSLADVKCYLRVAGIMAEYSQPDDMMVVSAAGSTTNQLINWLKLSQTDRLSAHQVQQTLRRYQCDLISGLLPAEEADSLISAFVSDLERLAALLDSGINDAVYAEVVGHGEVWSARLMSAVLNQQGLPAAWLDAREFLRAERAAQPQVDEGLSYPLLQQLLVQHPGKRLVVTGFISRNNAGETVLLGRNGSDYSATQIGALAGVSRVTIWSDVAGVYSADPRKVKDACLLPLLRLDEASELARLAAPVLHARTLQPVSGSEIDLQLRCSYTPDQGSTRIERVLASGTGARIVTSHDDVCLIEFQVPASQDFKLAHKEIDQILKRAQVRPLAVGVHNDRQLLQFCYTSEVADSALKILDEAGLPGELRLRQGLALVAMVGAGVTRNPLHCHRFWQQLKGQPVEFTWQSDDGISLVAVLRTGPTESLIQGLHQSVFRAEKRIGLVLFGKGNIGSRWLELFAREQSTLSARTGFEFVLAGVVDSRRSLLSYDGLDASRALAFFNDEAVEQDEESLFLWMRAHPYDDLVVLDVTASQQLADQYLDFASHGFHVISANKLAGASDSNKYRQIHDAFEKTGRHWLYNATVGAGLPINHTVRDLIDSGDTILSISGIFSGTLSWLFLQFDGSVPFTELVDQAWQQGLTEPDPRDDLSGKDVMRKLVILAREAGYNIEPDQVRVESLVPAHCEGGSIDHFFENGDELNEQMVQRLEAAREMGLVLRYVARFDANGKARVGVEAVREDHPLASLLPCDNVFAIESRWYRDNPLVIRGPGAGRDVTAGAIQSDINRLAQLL

[1] = target: T2, ribonucleoside-diphosphate reductase 2, β subunit (E. coli K-12, UniProt P37146 1-319)
T2 construct: NrdF, ribonucleoside-diphosphate reductase 2, β subunit, E. coli K-12; no measurement of the oligomer here; also called NrdF

adenylate cyclase CyaA = target: T3, adenylate cyclase CyaA (E. coli K-12, UniProt P00936 1-848)
T3 construct: CyaA, adenylate cyclase, E. coli K-12
T3 sequence (looked up): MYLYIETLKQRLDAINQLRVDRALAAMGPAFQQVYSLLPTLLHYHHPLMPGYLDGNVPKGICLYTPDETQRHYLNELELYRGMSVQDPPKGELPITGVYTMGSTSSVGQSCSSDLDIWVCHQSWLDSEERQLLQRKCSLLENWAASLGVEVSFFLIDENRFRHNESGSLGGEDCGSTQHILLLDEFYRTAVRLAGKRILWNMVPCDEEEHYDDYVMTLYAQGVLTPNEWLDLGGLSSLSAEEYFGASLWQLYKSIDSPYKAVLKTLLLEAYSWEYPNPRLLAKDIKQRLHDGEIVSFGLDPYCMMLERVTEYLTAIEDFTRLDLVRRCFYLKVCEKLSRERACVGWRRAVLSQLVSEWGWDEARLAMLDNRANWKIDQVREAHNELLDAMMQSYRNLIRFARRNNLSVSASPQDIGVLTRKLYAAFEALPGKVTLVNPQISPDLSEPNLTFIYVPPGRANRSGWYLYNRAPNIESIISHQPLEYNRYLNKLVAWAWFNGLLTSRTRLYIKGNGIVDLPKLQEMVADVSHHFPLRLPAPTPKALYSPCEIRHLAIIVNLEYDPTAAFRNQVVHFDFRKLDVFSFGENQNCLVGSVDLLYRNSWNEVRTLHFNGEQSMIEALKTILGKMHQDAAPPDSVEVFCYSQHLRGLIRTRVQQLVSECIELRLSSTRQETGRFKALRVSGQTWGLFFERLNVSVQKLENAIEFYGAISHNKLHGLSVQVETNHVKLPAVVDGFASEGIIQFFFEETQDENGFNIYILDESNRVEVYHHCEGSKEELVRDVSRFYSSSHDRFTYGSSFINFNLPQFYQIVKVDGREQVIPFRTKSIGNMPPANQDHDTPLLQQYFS

HyaF = target: T4, HyaF (E. coli K-12, UniProt P19932 1-285)
T4 construct: HyaF, E. coli K-12
T4 sequence (looked up): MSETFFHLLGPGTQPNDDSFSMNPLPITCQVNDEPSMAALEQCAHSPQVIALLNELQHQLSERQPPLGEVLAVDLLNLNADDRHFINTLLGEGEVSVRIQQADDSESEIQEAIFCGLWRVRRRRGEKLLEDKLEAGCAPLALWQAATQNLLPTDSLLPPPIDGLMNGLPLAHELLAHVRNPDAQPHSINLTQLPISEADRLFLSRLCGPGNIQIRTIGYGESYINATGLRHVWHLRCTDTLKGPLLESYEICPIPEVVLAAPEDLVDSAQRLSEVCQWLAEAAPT

Measured: binding result

T2 sequence (P37146 whole entry): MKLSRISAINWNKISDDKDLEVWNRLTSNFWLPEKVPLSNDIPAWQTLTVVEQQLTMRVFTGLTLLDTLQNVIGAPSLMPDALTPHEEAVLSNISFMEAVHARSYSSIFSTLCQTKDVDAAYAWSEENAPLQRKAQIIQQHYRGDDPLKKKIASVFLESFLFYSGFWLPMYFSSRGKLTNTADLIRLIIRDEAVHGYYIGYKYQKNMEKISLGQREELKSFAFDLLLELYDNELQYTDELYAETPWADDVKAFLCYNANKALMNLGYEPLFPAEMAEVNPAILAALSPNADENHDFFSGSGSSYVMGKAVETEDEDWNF

B1: DyLight 549-labeled Lactoferricin B (peptide, UniProt P24627 36-60, looked up)
peptide: FKCRRWQWRMKKLGAPSITCVRRAF
modifications: ends and bridges not checked; also: DyLight 549 label, sites not given here
notes: lactoferricin B (LfcinB), cationic antimicrobial peptide of 25 amino acids; also called fluorescence-labeled LfcinB; LfcinB; source: bought: Kelowna Inc; labelled with DyLight 549-NHS ester, desalted
binds: all assays above
